From paper PMC8110956, “An infection-induced RhoB-Beclin 1-Hsp90 complex enhances clearance of uropathogenic Escherichia coli” (Nature Communications, 2021)

Molecular target: T1, GST-fused Beclin 1 (human, UniProt Q14457 1-450)
T1 construct: Beclin 1, in pGEX4T-3; also called GST-Beclin 1; source: E. coli BL21 (DE3), purified (Glutathione Sepharose 4B)
Experiment: pull-down; about 1 μg of each purified GST-fused protein combined in 0.8% BSA in PBS at 4 °C overnight; precipitated with anti-RhoB or anti-Beclin 1 antibody (IgG as control) plus protein G Sepharose; western blot
Conditions: both partners purified

T1 sequence (Q14457 whole entry, the tested form may be a part): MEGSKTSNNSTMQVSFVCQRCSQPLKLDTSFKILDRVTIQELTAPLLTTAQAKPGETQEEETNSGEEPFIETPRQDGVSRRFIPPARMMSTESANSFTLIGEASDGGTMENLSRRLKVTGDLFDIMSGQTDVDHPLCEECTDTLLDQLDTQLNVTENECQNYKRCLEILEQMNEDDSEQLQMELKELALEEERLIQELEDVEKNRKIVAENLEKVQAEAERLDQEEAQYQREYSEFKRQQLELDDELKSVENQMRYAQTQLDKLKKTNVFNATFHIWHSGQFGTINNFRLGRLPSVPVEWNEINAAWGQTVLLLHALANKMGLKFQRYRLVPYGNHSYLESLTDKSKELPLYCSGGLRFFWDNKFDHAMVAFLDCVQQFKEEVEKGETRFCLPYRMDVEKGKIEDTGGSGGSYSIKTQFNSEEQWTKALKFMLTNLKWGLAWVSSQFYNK

binding result: binds
B1: GST-RhoB (118–196) (domain or fragment, human, UniProt P62745 118-196, looked up)
chain: KKDLRSDEHVRTELARMKQEPVRTDDGRAMAVRIQAYDYLECSAKTKEGVREVFETATRAALQKRYGSQNGCINCCKVL
notes: source: E. coli BL21 (DE3), purified (Glutathione Sepharose 4B)
